Reference: article doi:10.1101/609503 (bioRxiv, 2019)
One block for each binder: values may come before it.

B3: PBP4 (native) (enzyme, E. coli, UniProt P24228 21-477, looked up)
chain: ANVDEYITQLPAGANLALMVQKVGASAPAIDYHSQQMALPASTQKVITALAALIQLGPDFRFTTTLETKGNVENGVLKGDLVARFGADPTLKRQDIRNMVATLKKSGVNQIDGNVLIDTSIFASHDKAPGWPWNDMTQCFSAPPAAAIVDRNCFSVSLYSAPKPGDMAFIRVASYYPVTMFSQVRTLPRGSAEAQYCELDVVPGDLNRFTLTGCLPQRSEPLPLAFAVQDGASYAGAILKDELKQAGITWSGTLLRQTQVNEPGTVVASKQSAPLHDLLKIMLKKSDNMIADTVFRMIGHARFNVPGTWRAGSDAVRQILRQQAGVDIGNTIIADGSGLSRHNLIAPATMMQVLQYIAQHDNELNFISMLPLAGYDGSLQYRAGLHQAGVDGKVSAKTGSLQGVYNLAGFITTASGQRMAFVQYLSGYAVEPADQRNRRIPLVRFESRLYKDIYQNN
B7: His-PBP7 (enzyme, E. coli, UniProt P0AFI5 26-310, looked up)
chain: KTAAATTASQPEIASGSAMIVDLNTNKVIYSNHPDLVRPIASISKLMTAMVVLDARLPLDEKLKVDISQTPEMKGVYSRVRLNSEISRKDMLLLALMSSENRAAASLAHHYPGGYKAFIKAMNAKAKSLGMNNTRFVEPTGLSVHNVSTARDLTKLLIASKQYPLIGQLSTTREDMATFSNPTYTLPFRNTNHLVYRDNWNIQLTKTGFTNAAGHCLVMRTVINNKPVALVVMDAFGKYTHFADASRLRTWIETGKVMPVPAAALSYKKQKAAQMAAAGQTAQND

Key:
AUC = target: the molecule itself; experiment: AUC
MepM = target: T1, MepM (E. coli, UniProt P0AFS9 41-440); experiment: MST
T1 sequence (looked up): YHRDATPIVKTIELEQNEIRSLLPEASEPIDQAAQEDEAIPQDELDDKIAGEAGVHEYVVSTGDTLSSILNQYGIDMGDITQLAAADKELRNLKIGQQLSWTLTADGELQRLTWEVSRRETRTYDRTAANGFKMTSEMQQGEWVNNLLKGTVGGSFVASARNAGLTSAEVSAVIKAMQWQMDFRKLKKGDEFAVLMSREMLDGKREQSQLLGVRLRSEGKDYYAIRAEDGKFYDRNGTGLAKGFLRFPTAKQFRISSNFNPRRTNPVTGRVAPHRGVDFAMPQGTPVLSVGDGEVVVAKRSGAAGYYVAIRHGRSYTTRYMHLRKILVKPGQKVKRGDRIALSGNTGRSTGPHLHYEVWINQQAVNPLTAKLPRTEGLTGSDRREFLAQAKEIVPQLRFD

PBP4 (native) [1] = target: B3; experiment: MST
MST = target: the molecule itself; experiment: MST
His-PBP7 = target: B7; experiment: pull-down
PBP1A = target: T2, PBP1A (E. coli, UniProt P02918 1-850, NT647 RED-NHS dye on amines (fl-PBP1A)); experiment: MST
T2 sequence (looked up): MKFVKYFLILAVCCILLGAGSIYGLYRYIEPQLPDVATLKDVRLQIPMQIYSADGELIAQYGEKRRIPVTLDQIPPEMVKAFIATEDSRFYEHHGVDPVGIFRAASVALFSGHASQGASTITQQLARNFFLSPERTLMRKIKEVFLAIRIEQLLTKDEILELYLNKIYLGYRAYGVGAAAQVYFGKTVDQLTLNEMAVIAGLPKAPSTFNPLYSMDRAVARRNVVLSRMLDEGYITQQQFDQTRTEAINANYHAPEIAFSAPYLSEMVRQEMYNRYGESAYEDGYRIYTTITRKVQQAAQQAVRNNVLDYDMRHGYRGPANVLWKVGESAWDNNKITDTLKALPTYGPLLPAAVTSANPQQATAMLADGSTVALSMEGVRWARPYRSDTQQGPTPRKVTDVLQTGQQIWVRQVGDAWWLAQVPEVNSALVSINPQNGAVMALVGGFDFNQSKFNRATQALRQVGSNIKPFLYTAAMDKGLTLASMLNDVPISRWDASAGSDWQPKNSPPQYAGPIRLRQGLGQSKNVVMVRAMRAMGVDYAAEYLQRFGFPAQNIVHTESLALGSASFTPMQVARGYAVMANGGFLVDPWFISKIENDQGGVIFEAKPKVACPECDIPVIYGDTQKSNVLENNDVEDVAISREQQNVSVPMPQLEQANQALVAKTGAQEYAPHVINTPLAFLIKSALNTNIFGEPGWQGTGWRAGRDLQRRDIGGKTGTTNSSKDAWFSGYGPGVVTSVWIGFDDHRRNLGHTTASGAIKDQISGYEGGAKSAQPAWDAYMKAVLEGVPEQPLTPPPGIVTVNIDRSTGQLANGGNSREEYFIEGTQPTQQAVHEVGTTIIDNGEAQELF

[2] = target: preformed NlpI-PBP4 complex (E. coli, UniProt P0AFB1 19-294; P24228 21-477); experiment: MST
PBP4 (native) [3] = target: B3; experiment: pull-down

Kd (MepM): 152 nM
Kd (PBP4 (native) [1]): 177 nM
B1: NlpI (soluble version, residues 19-294) (natural protein, E. coli, UniProt P0AFB1 19-294, looked up)
chain: CSNTSWRKSEVLAVPLQPTLQQEVILARMEQILASRALTDDERAQLLYERGVLYDSLGLRALARNDFSQALAIRPDMPEVFNYLGIYLTQAGNFDAAYEAFDSVLELDPTYNYAHLNRGIALYYGGRDKLAQDDLLAFYQDDPNDPFRSLWLYLAEQKLDEKQAKEVLKQHFEKSDKEQWGWNIVEFYLGNISEQTLMERLKADATDNTSLAEHLSETNFYLGKYYLSLGDLDSATALFKLAVANNVHNFVEHRYALLELSLLGQDQDDLAESDQQ
modifications: NT647 RED-NHS dye on amines where used as the labelled partner (fl-NlpI)
stoichiometry N (AUC): 2
Kd (MST): 126 nM

binding result (His-PBP7): binds
B2: tagless NlpI (natural protein)
chain: CSNTSWRKSEVLAVPLQPTLQQEVILARMEQILASRALTDDERAQLLYERGVLYDSLGLRALARNDFSQALAIRPDMPEVFNYLGIYLTQAGNFDAAYEAFDSVLELDPTYNYAHLNRGIALYYGGRDKLAQDDLLAFYQDDPNDPFRSLWLYLAEQKLDEKQAKEVLKQHFEKSDKEQWGWNIVEFYLGNISEQTLMERLKADATDNTSLAEHLSETNFYLGKYYLSLGDLDSATALFKLAVANNVHNFVEHRYALLELSLLGQDQDDLAESDQQ

Binder: B3
Kd (PBP1A): 106 nM

binding result [2]: binds
B4: LpoA (natural protein, E. coli, UniProt P45464 27-678, looked up)
chain: CGTHTPDQSTAYMQGTAQADSAFYLQQMQQSSDDTRINWQLLAIRALVKEGKTGQAVELFNQLPQELNDAQRREKTLLAVEIKLAQKDFAGAQNLLAKITPADLEQNQQARYWQAKIDASQGRPSIDLLRALIAQEPLLGAKEKQQNIDATWQALSSMTQEQANTLVINADENILQGWLDLQRVWFDNRNDPDMMKAGIADWQKRYPNNPGAKMLPTQLVNVKAFKPASTNKIALLLPLNGQAAVFGRTIQQGFEAAKNIGTQPVAAQVAAAPAADVAEQPQPQTVDGVASPAQASVSDLTGEQPAAQPVPVSAPATSTAAVSAPANPSAELKIYDTSSQPLSQILSQVQQDGASIVVGPLLKNNVEELLKSNTPLNVLALNQPENIENRVNICYFALSPEDEARDAARHIRDQGKQAPLVLIPRSSLGDRVANAFAQEWQKLGGGTVLQQKFGSTSELRAGVNGGSGIALTGSPITLRATTDSGMTTNNPTLQTTPTDDQFTNNGGRVDAVYIVATPGEIAFIKPMIAMRNGSQSGATLYASSRSAQGTAGPDFRLEMEGLQYSEIPMLAGGNLPLMQQALSAVNNDYSLARMYAMGVDAWSLANHFSQMRQVQGFEINGNTGSLTANPDCVINRNLSWLQYQQGQVVPVS
modifications: NT647 RED-Maleimide dye on cysteines where used as the labelled partner (fl-LpoA)

Kd (PBP1A): 91 nM
B5: MepS(C68A) (enzyme, E. coli, UniProt P0AFV4 27-188, looked up)
chain: CSANNTAKNMHPETRAVGSETSSLQASQDEFENLVRNVDVKSRIMDQYADWKGVRYRLGGSTKKGIDASGFVQRTFREQFGLELPRSTYEQQEMGKSVSRSNLRTGDLVLFRAGSTGRHVGIYIGNNQFVHASTSSGVIISSMNEPYWKKRYNEARRVLSRS

Kd (PBP1A): 101 nM
binding result (PBP4 (native) [1]): binds
B6: PBP7 (enzyme, E. coli, UniProt P0AFI5 26-310, looked up)
chain: KTAAATTASQPEIASGSAMIVDLNTNKVIYSNHPDLVRPIASISKLMTAMVVLDARLPLDEKLKVDISQTPEMKGVYSRVRLNSEISRKDMLLLALMSSENRAAASLAHHYPGGYKAFIKAMNAKAKSLGMNNTRFVEPTGLSVHNVSTARDLTKLLIASKQYPLIGQLSTTREDMATFSNPTYTLPFRNTNHLVYRDNWNIQLTKTGFTNAAGHCLVMRTVINNKPVALVVMDAFGKYTHFADASRLRTWIETGKVMPVPAAALSYKKQKAAQMAAAGQTAQND
modifications: NT647 RED-NHS dye on amines where used as the labelled partner (fl-PBP7)

Binder: B7
binding result (PBP4 (native) [3]): binds
